Test results published in US20040098763A1 (published 2004).

How the values were obtained:
[1] = molecular target: T1, CycD2 (Arath; CycD2; 1) in DB-vector (Arabidopsis, UniProt P04386 1-147; P42752 1-361); test: yeast two-hybrid (MaV203), X-Gal filter assay for β-galactosidase; AD construct x BD construct
T1 construct: Yeast two-hybrid DB/BD fusion; also called cyclin D2
Method: (§1) ⁽¹⁾For each interaction test, yeast strain (MaV203) was transformed first with AD constructs listed in the first row, and then with BD constructs listed in the first column of the table following standard protocol. Three independent colonies from each interaction combination were used in X-Gal filter assay for β-galactosidase activity. The results of X-Gal assays were recorded at 2, 4, and 20 hours (overnight). Color intensity determined by visual inspection: “−” = none; “+” = weak; “++” = moderate; “+++” = strong. ⁽²⁾Faint color was visible after overnight incubation.

[2] = molecular target: T2, CycD1 (Arath; CycD1; 1) in DB-vector (A. thaliana, UniProt P04386 1-147; P42751 1-339); test: as above
T2 construct: Yeast two-hybrid DB/BD fusion
Method: as §1

[3] = molecular target: T3, Cdc2b (Cdc2bAt) in DB-vector (A. thaliana, UniProt P04386 1-147; P25859 1-309); test: as above
T3 construct: Yeast two-hybrid DB/BD fusion
Method: as §1

[4] = molecular target: T4, Cdc2a (Cdc2aAt) in DB-vector (Arabidopsis, UniProt P04386 1-147; P24100 1-294); test: as above
T4 construct: Yeast two-hybrid DB/BD fusion; also called Arath;CDKA;1
Method: as §1

[5] = molecular target: T5, CycA2 (Arath; CycA2; 2) in DB-vector (A. thaliana, UniProt P04386 1-147; Q147G5 1-436, limits assumed); test: yeast two-hybrid, quantification of reporter activity; ICK1 in GAL4-AD vector, partner in DB vector
T5 construct: Yeast two-hybrid DB fusion

[6] = molecular target: T6, CycB2 (Arath; CycB2; 2) in DB-vector (A. thaliana, UniProt P04386 1-147; Q39070 1-429); test: as above
T6 construct: Yeast two-hybrid DB fusion

[7] = molecular target: T7, vector alone (DB-vector without a gene) (UniProt P04386 1-147); test: as above
T7 construct: also called Control

[8] = molecular target: T3, Cdc2b (Cdc2bAt) in DB-vector; test: as above
[9] = molecular target: T1, CycD2 (Arath; CycD2; 1) in DB-vector; test: as above
ATMAP2 in DB-vector = molecular target: T8, ATMAP2 in DB-vector (A. thaliana); test: as above
T8 construct: Yeast two-hybrid DB fusion; also called MAP kinase

[10] = molecular target: T9, CycB1 (Arath; CycB1; 1) in DB-vector (A. thaliana, UniProt P04386 1-147; P30183 1-428); test: as above
T9 construct: Yeast two-hybrid DB fusion; also called Cyc1At

[11] = molecular target: T2, CycD1 (Arath; CycD1; 1) in DB-vector; test: as above
PCNAAt in DB-vector = molecular target: T10, PCNAAt in DB-vector (Arabidopsis); test: as above
T10 construct: Yeast two-hybrid DB/BD fusion; also called Arabidopsis PCNA

[12] = molecular target: T11, CycD3 (Arath; CycD3; 1) in DB-vector (Arabidopsis, UniProt P04386 1-147; P42753 1-376); test: as above
T11 construct: Yeast two-hybrid DB/BD fusion; also called cyclin D3

[13] = molecular target: T4, Cdc2a (Cdc2aAt) in DB-vector; test: as above

B1: CKS1At (AD construct) (other, UniProt O23249 1-87, looked up, not shown: large carriers)
chain: MGQIQYSEKYFDDTFEYRHVVLPPEVAKLLPKNRLLSENEWRAIGVQQSRGWVHYAVHRPEPHIMLFRRPLNYQQQQENQAQNMLVK
[1]
  binding result: no binding
[2]
  binding result: no binding

B2: ICK2 (AD construct) (other, not shown: large carriers)
chain: MAAVRRRERDVVEENGVTTTTVKRRKMEEEVDLVESRIILSPCVQATNRGGIVARNSAGASETSVVIVRRRDSPPVEEQCQIEEEDSSVSCCSTSEEKSKRRIEFVDLEENNGDDRETETSWIYDDLNKSEESMNMDSSSVAVEDVESRRRLRKSLHETVKEAELEDFFQVAEKDLRNKLLECSMKYNFDFEKDEPLGGGRYEWVKLNP
[3]
  binding result: no binding

B3: ICN6 (AD construct) (other, not shown: large carriers)
chain: LSPEKTIMSLREMSETKPKRDSEYEGSNIKRMRLDDDDDVLRSPTRTLSSSSSSSLAYSVSDSGGFCSVALSEEEDDHLSSSISSGCSSSETNEIATRLPFSDLEAHEISETEISTLLTNNFRKQGISSSENLGETAEMDSATTEMRDQRKTEKKKKMEKSPTQAELDDFFSAAERYEQKRFTEKYNYDIVNDTPLEGRYQWVSLKP
notes: also called ICK5
[3]
  binding result: no binding
[4]
  binding result: no binding

B4: ICN2 (AD construct) (other, not shown: large carriers)
chain: KKKQRERAHKNPREKKMSERKRELAEEASSTSFSPLKKTKLNDSSDSSPDSHDVIVFAVSSSSVASSAALASDECSVTIGGEESDQSSSISSGCFTSESKEIAKNSSSFGVDLEDHQIETETETSTFITSNFRKETSPVSEGLGETTTEMESSSATKRKQPGVRKTPTAAEIEDLFSELESQDDKKKQFIEKYNFDIVNDEPLEGRYKWDRL
notes: also called ICK4
[3]
  binding result: no binding
[4]
  binding result: no binding

B5: ICDK of Chenopodium rubrum (AD construct) (other, not shown: large carriers)
chain: MAAAATPTSSPAKKIKKVSKSSYNIPQLRSRRKNLSAPENFAELETTPLEVAAVVEEEEVANCSSSEVITTARSDFPPSCCSSNYDQLSSSEPEVVKDDDGLGNRTADPEVESGEASSKQKESHRTEAREATKLDDQDYPATKSTVQIKMPSDSEIEEFFAVAEKDLQKRFSEKYNFDIVKDVPLKGRYDWVPINP
notes: Yeast two-hybrid AD fusion; also called ICKCr; Chenopodium ICDK
[3]
  binding result: no binding
[4]
  binding result: no binding

B6: ICN8 (AD construct) (other, not shown: large carriers)
chain: MGKYIRKSKIDGAGAGAGGGGGGGGGGESSIALMDVVSPSSSSSLGVLTRAKSLALQQQQQRCLLQKPSSPSSLPPTSASPNPPSKQKMKKKQQQMNDCGSYLQLRSRRLQKKPPIVVIRSTKRRKQQRRNETCGRNPNPRSNLDSIRGDGSRSDSVSESVVFGKDKDLISEINKDPTFGQNFFDLEEEHTQSFNRTTRESTPCSLIRRPEIMTTPGSSTKLNICVSESNQREDSLSRSHRRRPTTPEMDEFFSGAEEEQQKQFIEKYNFDPVNEQPLPGRFEWTKVDD
notes: Yeast two-hybrid AD fusion; also called ICK7
[3]
  binding result: no binding

B7: ICN7 (AD construct) (other, not shown: large carriers)
chain: MGKYMKKSKITGDISVMEVSKATAPSPGVRTRAAKTLALKRLNSSAADSALPNDSSCYLQLRSRRLEKPSSLIEPKQPPRVHRSGIKESGSRSRVDSVNSAPVAQSSNEDECFDNFVSVQVSCGENSLGFESRHSTRESTPCNFVEDMEIMVTPGSSTRSMCRATKEYTREQDNVIPTTSEMEEFFAYAEQQQQRLFMEKYNFDIVNDIPLSGRYEWVQVKP
notes: also called ICK6
[3]
  binding result: no binding

B8: ICK1 in a GAL4-activation domain vector (other, not shown: large carriers)
chain: MVRKYRKAKGIVEAGVSSTYMQLRSRRIVYVRSEKSSSVSVVGDNGVSSSCSGSNEYKKKELIHLEEEDKDGDTETSTYRRGTKRKLFENLREEEKEELSKSMENYSSEFESAVKESLDCCCSGRKTMEETVTAEEEEKAKLMTEMPTESEIEDFFVEAEKQLKEKFKKKYNFDFEKEKPLEGRYEWVKLE
notes: Yeast two-hybrid AD fusion; the GAL4 domain is placed first as in standard vectors
[5]
  Quantification (yeast two-hybrid reporter activity): 0.03
[6]
  Quantification (yeast two-hybrid reporter activity): 0.05
[7]
  Quantification (yeast two-hybrid reporter activity): 0
[8]
  Quantification (yeast two-hybrid reporter activity): 0
[9]
  Quantification (yeast two-hybrid reporter activity): 14.8
ATMAP2 in DB-vector
  Quantification (yeast two-hybrid reporter activity): 0
[10]
  Quantification (yeast two-hybrid reporter activity): 0.06
[11]
  Quantification (yeast two-hybrid reporter activity): 3.13
PCNAAt in DB-vector
  Quantification (yeast two-hybrid reporter activity): 0
[12]
  Quantification (yeast two-hybrid reporter activity): 22.7
[13]
  Quantification (yeast two-hybrid reporter activity): 2.65
[3]
  binding result: no binding
